Results on 3 molecules are retold here after article PMC5790771, “Reconstitution of Pure Chaperonin Hetero-Oligomer Preparations in Vitro by Temperature Modulation” (Frontiers in Molecular Biosciences, 2018).

In general, stoichiometry N refers to a count of units in the complex or per binding partner.

B1: Cpn60β2 (At3g13470) (natural protein, A. thaliana, UniProt Q9LJE4 51-596, looked up)
chain: AAKELHFNKDGTTIRKLQTGVNKLADLVGVTLGPKGRNVVLESKYGSPRIVNDGVTVAREVELEDPVENIGAKLVRQAAAKTNDLAGDGTTTSVVLAQGFIAEGVKVVAAGANPVLITRGIEKTAKALVNELKLMSKEVEDSELADVAAVSAGNNHEVGSMIAEAMSKVGRKGVVTLEEGKSAENNLYVVEGMQFDRGYISPYFVTDSEKMSVEYDNCKLLLVDKKVTNARDLVGVLEDAIRGGYPILIIAEDIEQEALATLVVNKLRGTLKIAALKAPGFGERKSQYLDDIAILTGATVIREEVGLSLDKAGKEVLGNASKVVLTKEMTTIVGDGTTQEAVNKRVVQIRNLIEQAEQDYEKEKLNERIAKLSGGVAVIQVGAQTETELKEKKLRVEDALNATKAAVEEGIVVGGGCTLLRLASKVDAIKDTLENDEEKVGAEIVKRALSYPLKLIAKNAGVNGSVVSEKVLANDNVKFGYNAATGKYEDLMAAGIIDPTKVVRCCLEHAASVAKTFLMSDCVVVEIPEPEPVPAGNPMDNSGYGY
notes: Cpn60β2, chloroplast chaperonin 60 beta subunit of A. thaliana, At3g13470; also called β2 Cpn60; source: purified by a previously published protocol (Vitlin et al., 2011)
B2: Cpn60α2 (At2g28000) (natural protein)
chain: not shown
notes: additional glycine-serine at the N-terminus, left by the cloning (printed in words); Cpn60α2, chloroplast chaperonin 60 alpha subunit of A. thaliana, At2g28000; 541 residues without the putative transit peptide; The vector codes for an octa-histidine tag followed by a TEV site at the amino terminus; also called α2 Cpn60; Cpn60α2 subunit; source: E. coli Rosetta (Novagen), purified based on the …
B3: Cpn60α1 (At5g18820) (natural protein)
chain: not shown
notes: additional glycine-serine at the N-terminus, left by the cloning (printed in words); Cpn60α1, chloroplast chaperonin 60 alpha subunit of A. thaliana, At5g18820; 543 residues without the putative transit peptide; The vector codes for an octa-histidine tag followed by a TEV site at the amino terminus; also called α1 Cpn60; Cpn60α1 subunit; source: E. coli Rosetta (Novagen), purified based on the …

Series [1] concerns the molecule itself. The series is described as follows: SEC; 300 μM β2 and 150 μM mt-cpn10 reconstituted with Mg-ATP (600 μl), Superdex 200 run at room temperature; fractions on SDS-PAGE.
Another series has as its target T1, Cpn60β3 (At1g55490) (A. thaliana, UniProt P21240 55-600).
T1 construct: Cpn60β3, chloroplast chaperonin 60 beta subunit of A. thaliana, At1g55490; also called β3 Cpn60; source: purified by a previously published protocol (Vitlin et al., 2011)
The series is described as follows: native gel or EMSA; reconstitution: 150 μM Cpn60α2 with 100 μM Cpn60β and 50 μM Cpn10 (GroES, mt-cpn10, Cpn20 or Cpn10(2)); 50 mM Tris-HCl pH 8, 0.3 M NaCl, 10 mM MgCl2, 16 mM KCl, 2 mM DTT, 5 mM ATP; 5 min at room temperature, 1 h at 30°C; 6% native polyacrylamide gel. The following applies: both partners purified.

The series “Cpn60β2 (At3g13470)” deals with B1. The series is described as follows: SEC; 150 μM α2, 100 μM β2 and 50 μM mt-cpn10 reconstituted with Mg-ATP (2 ml), Superdex 200 run at 4°C in 50 mM Tris-HCl pH 8, 300 mM NaCl, 5% glycerol; fractions on SDS-PAGE. The note with it: both partners purified.
Series [2] concerns the molecule itself. The series is described as follows: cross-linking; 20 μM purified protein, 0.1% glutaraldehyde, room temperature, 50 mM Na-HEPES (pH 8 in the legend, 7.5 in the methods), 10 mM MgCl2, 100 mM KCl; SDS-PAGE on a 2.4-12% gradient gel, Coomassie.

T1 sequence (P21240 55-600): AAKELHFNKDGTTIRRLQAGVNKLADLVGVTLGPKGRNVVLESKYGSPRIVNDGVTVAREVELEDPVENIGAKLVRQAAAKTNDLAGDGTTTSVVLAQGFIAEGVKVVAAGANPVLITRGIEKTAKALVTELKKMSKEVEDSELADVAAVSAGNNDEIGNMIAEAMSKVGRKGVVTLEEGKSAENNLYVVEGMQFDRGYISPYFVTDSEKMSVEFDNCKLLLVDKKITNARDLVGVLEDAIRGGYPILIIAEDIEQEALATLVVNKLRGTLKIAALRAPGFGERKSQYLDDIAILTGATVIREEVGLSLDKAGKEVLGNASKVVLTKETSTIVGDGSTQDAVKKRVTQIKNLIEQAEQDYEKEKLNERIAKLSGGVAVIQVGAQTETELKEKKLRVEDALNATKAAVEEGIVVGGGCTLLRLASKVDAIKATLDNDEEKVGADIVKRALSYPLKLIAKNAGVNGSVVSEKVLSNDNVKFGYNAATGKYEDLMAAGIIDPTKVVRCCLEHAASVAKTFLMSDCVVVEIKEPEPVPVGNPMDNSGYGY

For B1, the binding result in series [1] is on record as “binds”. Turning to B2, the binding result with Cpn60β3 (At1g55490) and in the series with Cpn60β2 (At3g13470) was “binds” throughout. B3: the “stoichiometry N” value in series [2] turned out to be 2.
